Test: yeast display, Sf9 membrane polyspecificity reagent, FACS + sequencing; frameworks hold sequencing errors
How it was run: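 Sorting gates, low and high (top ~1%), were placed on anti-HA fluorescence to track expression and on streptavidin fluorescence to track reagent binding. A clone's polyreactivity label is taken from the gate it came out of. The reagent was 10% biotinylated, detergent-solubilized Sf9 membrane, applied for 1 hour at 4 °C to galactose-induced yeast display cells.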

Sequence | polyreactivity (PSR sort gate)
QVQLVESGGGLVQAGGSLRLSCAASGRTFRYYAMGWYIQAPGKERELVATITGSGGSTYYADSVKGRFTISRDNAKNTVYLQMNSLKPEDTAVYYCNARKVRYPYRWYDYWGQGTQVTVSS | high polyreactivity
QVQLVESGGGLVQAGGSLRLSFADSGLILNFYAKSSYRQAPGKERELVAAISWNAGSTYYADSVKGRFTISREKSMNTGYVQMKSLKPEDTAVYYCAVLPGRYDKTASHYDYWGQGTQVTVSS | low polyreactivity
QVQLVESGGGLVQAGGSLRLSCAASGIIQGVYALGWYRQAPGKERELVAAITSSGGSTYYADSVKGRFTISRDNAKNTVYLQMNSLKPEDTAVYYCAADFDTSVRLYGPTRYDYWGQGTQVTVSS | low polyreactivity
QVQLVESGGGLVQAGGSLRLSCAASGRTFPYNAMGWYRQAPGKERELVASITYNGGSTYYADSVKGRFTISRDNAKNTVYLQMISLKPEDTAVYYCAKLFRTYYATYNYWGQGTQVTVSS | high polyreactivity
QVQLVESGGGLVQAGGSLRLSCAASGRTFYYYGMGWYRQAPGKERELVATISWSGGSTYYADSVKGRFTISRDNAKNTVYLQMNSLKPEDTAVYYSAADGQFLYDHIEVDYWGQATQVTVSS | low polyreactivity
QVQLVESGGGLVQAGGSLRLSCAASGFIFAGYAMGWYRQAPGKERELVAAISSRGGSTYYADSVKGRFTISRDNAKNTVYLQMNSLKPEDTAVYYCNKYYYGFTPDGYKKMDYWGQGTQVTVSS | low polyreactivity
QVQLVESGGGLVQAGGSLRLSCAASGSTFPVNAMGWYRQAPGKEREMVASITWGDGSTYYADSVKGRFTISRDNAKNTVYLQMNSLKPEDTADYYCNKDFFYGYDAASYRPEYDYWGQGTQVTVSS | low polyreactivity
QDQHVESGGGLVQAGGSLRLSCAASGGTFVPYAMGWYRQAPGKERELVARISKRGGTTYYADSVKGRFTISRDIAKNTVYLQMNSLKPEDTAVYYCAAGLPARGYYWGQGTQVTVSS | high polyreactivity
QVQLVESGGGLVQAGGSLRLSCAASGRIFYTYAMGWYRTAPGKERELVAAISSRTGSTYYADSVKWRFTISRDNAKNTVYLQMNSLKPEDTAVYYCNAYRLRYGYDYWGQGTQVTVSS | high polyreactivity
QVQLVESGGGLVQAGGSLRLSCAASGSTFGYNAMGWYRQAPGKERELVAAITWSGGSTYYADSVKGRFTISRDNAKNTFYFQMNSLKPEDTAVYYCAAEWGVGKSWLEYLLFYYWGQGTQVTVSS | low polyreactivity
QVQLVESGGGLVQAGGSLRLSCAASGNTFAGNAKGCYRQAPGKERELVAAISRSGVTTRYADSVKGRFTISRDNAKNTVYLQMNSLKPEDTAVYYCNADPRLRQTRDYWGQGTQVTVSS | high polyreactivity
QVQLVESGGGLVQAGGSLRLSCAASGRTLSRYTMGWYIQAPGKERELVAGITRSGGSTYYPDSEKGRFTISRDNAKNTVYLQMNSLKPEDTAVYYCAARWHFLTSSRFDYWGQGTQVTVSS | high polyreactivity
QVQLVESGGGLVQAGGSLRLSCAASGLTFSLYAMGWYRQAPGKERELVAAISSSGSTYYADSVKGRFTISRDNAKNTVYLQMNILKPEDTAVYYFAADAPWWIDPIAGNYWGQGTQVTVSS | high polyreactivity
QVQLVESGGGLVQAGGSLRLSCAASGRTFWKNTMGWSRQAPGKERELVAVISSGGVSTSYADSVKGRFTISRDNAKNTVYLQMNSLKPEDTAVYYCAADGYYIGPYDYWGQGTQVTVSS | low polyreactivity
QVQLVESGGGLVQAGGSLRLSCAASGFTFARYAMGWYTKAPGKERELVARISSDGGGTDYADSVKGRFTISRDNAKNTVYLQMNSLKPEDTAVYYCAARFPGYHYFKYYYWGQGTQVTVSS | low polyreactivity
QVQLVESGGGLVQAGGSLRLSCAASGGTFSKYAMGWYRQAPGKEREFVAAITVSGGGSYYADSVKGRFTISRDNAKNTVYLQMNSLKPEDTAVYYCAADLAWTASDYWGQGTQVTVSS | low polyreactivity
QVQLVESGGGLVQAGGSLRLSCAASGRIFASYAMGWYRQAPGKERELVAAISLSGGSTYYADSVKGRFTISRDNAKNTVYLQMNSLKPEDTAVYYCNARAIGWRIYDYWGQGTQVTVSS | high polyreactivity
QVQLVESGGCLVQAGGSLRLSCAASGSTLSYYAMGWYRQAPGKERELVAAINKSVTRTYYADSVKGRFTISRDNAKNTVYLQMNSLKPEDTAVYYCAASVPYYNGYYYNAYEYWGQGTQVTVSS | high polyreactivity
QVQLVESRGALVQAGGSLRLSCAASGYIFRAYAMGWYRPAPGKERELVAAISSRGGSTYYADSVKGRFTISRDNAKNTVYLQMNSLKPEDTAVYYCAAAYRQPYIGYGYWGQGTQVTVSS | high polyreactivity
QVQLVESGGGLVQAGGSLRLSCAASGFIFDPYAMGWYRQAPGKERELVAAISDGGSTNYADSVKGRFTISRDNAKNTVYLQMNSLKPEDTAVYYCAVEYWYVWVTFDYWGQGTQVTVSS | low polyreactivity
QVQLVESGGGLVQAGGSLRLSCAASGSTFYYNGMGWYRQAPGKERELVAVISISGGSTYYADSVKGRFTISRDNAKNTVYLQMNSLKPEDTAVYYCATSYVGRSAYRSYGARGGYWGQGTQVTVSS | low polyreactivity
